From publication doi:10.1101/322701 (bioRxiv, 2018)

Columns and labels:
Assay in all cases: BLI
[1] = target: Biotinylated NH-GrgA (Chlamydia trachomatis) (UniProt O84512)
[2] = target: N-terminally His-tagged GrgA, full length (Chlamydia trachomatis) (UniProt O84512)
[3] = target: NH-GrgAΔ1-64 (Chlamydia trachomatis) (UniProt O84512)
[4] = target: T1, N-terminally His-tagged GrgA, full length (Chlamydia trachomatis, UniProt O84512 1-288)
T1 sequence (looked up): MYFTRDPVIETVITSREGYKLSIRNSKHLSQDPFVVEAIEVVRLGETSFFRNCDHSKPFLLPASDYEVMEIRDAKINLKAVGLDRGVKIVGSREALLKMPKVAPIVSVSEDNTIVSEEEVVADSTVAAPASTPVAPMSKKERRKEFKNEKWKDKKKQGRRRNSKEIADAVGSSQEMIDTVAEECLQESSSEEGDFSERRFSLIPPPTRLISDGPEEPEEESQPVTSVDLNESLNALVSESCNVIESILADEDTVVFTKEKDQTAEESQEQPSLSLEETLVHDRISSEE

CH-σ^66 = target: T2, CH-σ^66 (C. trachomatis, UniProt P18333 1-571)
T2 sequence (looked up): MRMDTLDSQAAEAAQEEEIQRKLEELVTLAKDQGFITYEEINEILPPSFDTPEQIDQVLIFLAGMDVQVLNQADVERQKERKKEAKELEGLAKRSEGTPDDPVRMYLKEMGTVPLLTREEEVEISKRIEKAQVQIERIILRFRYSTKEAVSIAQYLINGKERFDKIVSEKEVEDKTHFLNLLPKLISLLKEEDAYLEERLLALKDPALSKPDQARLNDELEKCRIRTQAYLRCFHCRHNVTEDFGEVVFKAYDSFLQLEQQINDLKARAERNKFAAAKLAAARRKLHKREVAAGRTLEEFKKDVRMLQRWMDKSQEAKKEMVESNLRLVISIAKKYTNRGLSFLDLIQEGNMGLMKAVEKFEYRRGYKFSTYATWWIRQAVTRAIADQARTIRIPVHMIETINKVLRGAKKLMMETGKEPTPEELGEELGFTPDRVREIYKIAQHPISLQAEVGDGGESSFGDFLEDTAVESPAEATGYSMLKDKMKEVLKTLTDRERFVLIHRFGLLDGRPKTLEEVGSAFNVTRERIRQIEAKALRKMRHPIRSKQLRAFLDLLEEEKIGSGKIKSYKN

[5] = target: N-terminally poly-His-tagged C. trachomatis σ^28 (C. trachomatis)
Sequence of N-terminally poly-His-tagged C. trachomatis σ^28 (C. trachomatis) (B0B8K1 whole entry): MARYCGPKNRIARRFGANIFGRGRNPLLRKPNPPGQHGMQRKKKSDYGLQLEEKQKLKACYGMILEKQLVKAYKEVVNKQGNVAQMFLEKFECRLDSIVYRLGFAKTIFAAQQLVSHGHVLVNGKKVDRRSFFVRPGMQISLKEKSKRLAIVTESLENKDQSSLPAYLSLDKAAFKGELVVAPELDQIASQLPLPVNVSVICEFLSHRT

NH-σ^28ΔNL (domain or fragment)
fold higher KD than full length NH-σ^28 [1]: 345 fold

N-terminally strep-tagged σ^28 (natural protein)
fold higher KD than the NH-GrgA-CS-σ^66 interaction [2]: 32 fold
fold decrease in ka against full length NH-GrgA [3]: 3 fold
fold increase in KD against full length NH-GrgA [3]: 4.8 fold
fold increase in kd against full length NH-GrgA [3]: 2 fold

NH-σ^28ΔR2 (natural protein)
fold higher KD than full length NH-σ^28 [1]: 177 fold
fold reduction in ka against full length NH-σ^28 [1]: 2 fold

NH-σ^28ΔR3 (natural protein)
fold higher KD than full length NH-σ^28 [1]: 7 fold
fold increase in ka against full length NH-σ^28 [1]: 3.5 fold

NH-σ^28ΔR4 (natural protein)
fold higher KD than full length NH-σ^28 [1]: 7 fold
percent increase in ka against full length NH-σ^28 [1]: 50%

B1: CS-σ^66 (natural protein, C. trachomatis, UniProt P18333 1-571, looked up)
chain: T2 sequence (looked up)
fold higher ka than the NS-σ^28 analyte on NH-GrgA [4]: 25 fold
fold increase in kd over the NS-σ^28 analyte on NH-GrgA [4]: 3 fold

B2: N-terminally strep-tagged GrgA (natural protein, Chlamydia trachomatis, UniProt O84512 1-288, looked up)
chain: T1 sequence (looked up)
fold higher ka than for NH-σ^28 as ligand (CH-σ^66): 3.7 fold
fold slower dissociation (kd) than from NH-σ^28 (CH-σ^66): 6 fold
fold higher KD than the CH-σ^66-NS-GrgA interaction [5]: 28 fold
